The target in test [1] is HLA-A2-pol (biotinylated HLA-A2 plus HIV-1 polymerase 476-484, immobilised on streptavidin) (human; HIV-1).
In test [2] the target is HLA-A2-flu (biotinylated HLA-A2 plus Influenza matrix protein 58-66, immobilised on streptavidin) (human; Influenza). Put plainly: SPR (BIAcore) equilibrium binding, immobilised HLA-A2-flu, 37 °C, mean ± range. (In general: In SPR one partner is held on a chip, and binding of the other changes the refractive index at the surface.)

The koff is the rate constant with which the complex falls apart. Usually kon stands for the rate constant with which the complex forms. As a reminder, the Kd is the equilibrium constant for the complex coming apart.

B1: soluble CD8αα receptor (residues 1-120 of the mature human CD8α protein, expressed in E. coli and refolded as a homodimer) (receptor)
chain: not shown
notes: also called sCD8αα; CD8 A
B1: in test [1], the koff was 18 s⁻¹ and the on-rate constant (kon) was at least 140000 M⁻¹ s⁻¹. Also, in test [2], the Kd was 629 µM.

(Values after patent US20070191278A1 (AVIDEX, published 2007).)
